According to patent US20240218074A1:

Tests used:
[1] = target: human NT5E-Biotin (NT5E is GenbankID: NP_002517.1, position: 1-552) (human) (UniProt P21589); assay: ELISA on streptavidin-captured human NT5E-Biotin; antibody 1:9 dilution of 0.333 ug/mL; replicate 2
[2] = target: human NT5E-Biotin (NT5E is GenbankID: NP_002517.1, position: 1-552) (human) (UniProt P21589); assay: ELISA on streptavidin-captured human NT5E-Biotin; antibody 1:3 dilution of 0.333 ug/mL; replicate 2
[3] = target: human NT5E-Biotin (NT5E is GenbankID: NP_002517.1, position: 1-552) (human) (UniProt P21589); assay: ELISA on streptavidin-captured human NT5E-Biotin; antibody 0.333 ug/mL; replicate 1
[4] = target: human NT5E-Biotin (NT5E is GenbankID: NP_002517.1, position: 1-552) (human) (UniProt P21589); assay: ELISA on streptavidin-captured human NT5E-Biotin; antibody 1:243 dilution of 0.333 ug/mL; replicate 2
[5] = target: human NT5E-Biotin (NT5E is GenbankID: NP_002517.1, position: 1-552) (human) (UniProt P21589); assay: ELISA on streptavidin-captured human NT5E-Biotin; antibody 0.333 ug/mL; replicate 2
[6] = target: human NT5E-Biotin (NT5E is GenbankID: NP_002517.1, position: 1-552) (human) (UniProt P21589); assay: ELISA on streptavidin-captured human NT5E-Biotin; antibody 1:729 dilution of 0.333 ug/mL; replicate 2
[7] = target: human NT5E-Biotin (NT5E is GenbankID: NP_002517.1, position: 1-552) (human) (UniProt P21589); assay: ELISA on streptavidin-captured human NT5E-Biotin; antibody 0 (blank well); replicate 2
[8] = target: human NT5E-Biotin (NT5E is GenbankID: NP_002517.1, position: 1-552) (human) (UniProt P21589); assay: ELISA on streptavidin-captured human NT5E-Biotin; antibody 1:243 dilution of 0.333 ug/mL; replicate 1
[9] = target: human NT5E-Biotin (NT5E is GenbankID: NP_002517.1, position: 1-552) (human) (UniProt P21589); assay: ELISA on streptavidin-captured human NT5E-Biotin; antibody 1:27 dilution of 0.333 ug/mL; replicate 2
[10] = target: human NT5E-Biotin (NT5E is GenbankID: NP_002517.1, position: 1-552) (human) (UniProt P21589); assay: ELISA on streptavidin-captured human NT5E-Biotin; antibody 1:9 dilution of 0.333 ug/mL; replicate 1
[11] = target: human NT5E-Biotin (NT5E is GenbankID: NP_002517.1, position: 1-552) (human) (UniProt P21589); assay: ELISA on streptavidin-captured human NT5E-Biotin; HRP goat anti-human IgG
[12] = target: human NT5E-Biotin (NT5E is GenbankID: NP_002517.1, position: 1-552) (human) (UniProt P21589); assay: ELISA on streptavidin-captured human NT5E-Biotin; antibody 1:27 dilution of 0.333 ug/mL; replicate 1
[13] = target: human NT5E-Biotin (NT5E is GenbankID: NP_002517.1, position: 1-552) (human) (UniProt P21589); assay: ELISA on streptavidin-captured human NT5E-Biotin; antibody 0 (blank well); replicate 1
[14] = target: human CD73 expressed on cells (human PBMC CD8+ T cells and CD19+ B cells; endogenous CD73 of MDA-MB-231 and U87-MG cells) (human) (UniProt P21589); assay: cell-based or functional assay
[15] = target: human NT5E-Biotin (NT5E is GenbankID: NP_002517.1, position: 1-552) (human) (UniProt P21589); assay: ELISA on streptavidin-captured human NT5E-Biotin; antibody 1:3 dilution of 0.333 ug/mL; replicate 1
[16] = target: human NT5E-Biotin (NT5E is GenbankID: NP_002517.1, position: 1-552) (human) (UniProt P21589); assay: ELISA on streptavidin-captured human NT5E-Biotin; antibody 1:81 dilution of 0.333 ug/mL; replicate 2
[17] = target: human NT5E-Biotin (NT5E is GenbankID: NP_002517.1, position: 1-552) (human) (UniProt P21589); assay: ELISA on streptavidin-captured human NT5E-Biotin; antibody 1:81 dilution of 0.333 ug/mL; replicate 1
[18] = target: human NT5E-Biotin (NT5E is GenbankID: NP_002517.1, position: 1-552) (human) (UniProt P21589); assay: ELISA on streptavidin-captured human NT5E-Biotin; antibody 1:729 dilution of 0.333 ug/mL; replicate 1

Chain of human CD73 expressed on cells (human PBMC CD8+ T cells and CD19+ B cells; endogenous CD73 of MDA-MB-231 and U87-MG cells) (human) (P21589 27-549): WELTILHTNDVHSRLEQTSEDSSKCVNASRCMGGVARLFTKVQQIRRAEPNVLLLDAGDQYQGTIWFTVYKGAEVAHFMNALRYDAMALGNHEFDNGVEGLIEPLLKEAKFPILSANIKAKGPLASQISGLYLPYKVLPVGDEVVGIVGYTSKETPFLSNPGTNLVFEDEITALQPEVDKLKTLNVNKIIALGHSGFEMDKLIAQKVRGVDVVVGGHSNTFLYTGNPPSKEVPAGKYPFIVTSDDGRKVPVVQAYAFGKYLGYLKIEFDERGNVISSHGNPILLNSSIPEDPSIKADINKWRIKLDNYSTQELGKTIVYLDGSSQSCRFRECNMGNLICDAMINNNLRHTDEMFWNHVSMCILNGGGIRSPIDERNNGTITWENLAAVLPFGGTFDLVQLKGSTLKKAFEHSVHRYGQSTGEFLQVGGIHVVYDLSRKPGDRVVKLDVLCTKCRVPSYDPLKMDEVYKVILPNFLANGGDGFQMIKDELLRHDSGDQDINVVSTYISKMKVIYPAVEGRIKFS
Chain of human NT5E-Biotin (NT5E is GenbankID: NP_002517.1, position: 1-552) (human) (P21589 27-552 limits assumed, form in doubt): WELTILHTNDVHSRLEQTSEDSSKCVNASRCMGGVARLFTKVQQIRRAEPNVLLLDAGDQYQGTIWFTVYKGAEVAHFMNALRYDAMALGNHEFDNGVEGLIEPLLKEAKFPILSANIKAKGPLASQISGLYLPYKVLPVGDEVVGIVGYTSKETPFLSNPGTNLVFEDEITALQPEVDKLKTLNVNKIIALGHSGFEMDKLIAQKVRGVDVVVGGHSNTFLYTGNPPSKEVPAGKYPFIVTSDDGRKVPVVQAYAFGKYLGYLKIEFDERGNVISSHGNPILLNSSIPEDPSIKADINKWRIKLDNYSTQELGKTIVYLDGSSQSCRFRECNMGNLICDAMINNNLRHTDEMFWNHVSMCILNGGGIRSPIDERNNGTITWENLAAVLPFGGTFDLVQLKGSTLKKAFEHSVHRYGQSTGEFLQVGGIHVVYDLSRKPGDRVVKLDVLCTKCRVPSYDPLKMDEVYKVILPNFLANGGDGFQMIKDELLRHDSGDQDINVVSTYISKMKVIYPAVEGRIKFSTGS

“positive control antibody MEDI9447 (Oleclumab)” showed an OD (450 nm) [1] of 2.28 OD450, an OD (450 nm) [2] of 2.6 OD450 and an OD (450 nm) [3] of 2.55 OD450. The OD (450 nm) [4] was 0.528 OD450, the OD (450 nm) [5] was 2.53 OD450 and the OD (450 nm) [6] was 0.275 OD450. The OD (450 nm) [7] was 0.116 OD450, the OD (450 nm) [8] was 0.536 OD450 and the OD (450 nm) [9] was 1.74 OD450. For the same substance, the OD (450 nm) [10] was 2.27 OD450, the EC50 [11] was 0.048 nM and the OD (450 nm) [12] was 1.77 OD450. For the same substance, the OD (450 nm) [13] was 0.121 OD450, the Inhibition rate EC50 (nM): enzyme activity of CD73 expressed by human PBMC membrane (AMP/ATP CellTiter-Glo read-out) [14] was 0.0064 nM and the internalization rate of CD73 in MDA-MB-231 cells after 22 hours (FACS) [14] was 50.5%. It also gave an internalization rate of CD73 in U87-MG cells after 22 hours (FACS) [14] of 73.7%, an OD (450 nm) [15] of 2.57 OD450 and an OD (450 nm) [16] of 1.03 OD450. The OD (450 nm) [17] was 1.06 OD450 and the OD (450 nm) [18] was 0.272 OD450.
